Assay results from US20250135039A1, “INHIBITOR-RESISTANT MGMT MODIFICATIONS AND MODIFICATION OF MGMT-ENCODING NUCLEIC ACIDS” (Ensoma, Inc., priority 2022, published 2025).
Changes are numbered by the printed parent chain. In names and notes the source's numbering stands.

B1: G160E: MGMT polypeptide with mutation G160E (protein)
chain: MDKDCEMKRTTLDSPLGKLELSGCEQGLHEIKLLGKGTSAADAVEVPAPAAVLGGPEPLMQCTAWLNAYFHQPEAIEEFPVPALHHPVFQQESFTRQVLWKLLKVVKFGEVISYQQLAALAGNPKAARAVGGAMRGNPVPILIPCHRVVCSSGAVGNYSEGLAVKEWLLAHEGHRLGKPGLGGSSGLAGAWLKGAGATSGSPPAGRN
B2: G160H: MGMT polypeptide with mutation G160H (protein)
chain: B1 chain with E160H
B3: G160P: MGMT polypeptide with mutation G160P (protein)
chain: B1 chain with E160P
B4: A170S: MGMT polypeptide with mutation A170S (protein)
chain: B1 chain with E160G, A170S
B5: wild-type MGMT: reference MGMT polypeptide according to SEQ ID NO: 1 (GenBank NP_002403.3); used as control (protein)
chain: B1 chain with E160G
modifications: REGION 1..207: note = Wild Type MGMT
notes: used as control

System: U251 human glioblastoma cell line
Test: in vitro FM-HCR assay of MGMT activity (mPlum O^6MeG reporter plasmid)
Type: cell-based
Details: 100 μM O^6BG; U251 cells; flow cytometry 24 h after transfection; damaged/undamaged reporter; inversely related to MGMT activity
Outline: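 U251 cells transfected with MGMT variant plasmid, mPlum O^6MeG reporter (or undamaged mPlum plasmid) and BFP control, in 100 μM O^6BG or 0.1% DMSO; flow cytometry at 24 h. mPlum count×intensity normalized to BFP; percent reporter expression = damaged/undamaged ×100, inversely related to MGMT activity.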

Point of comparison: B2, “Reporter expression (%) mean, O^6BG” value 21.3%. Against it:
- B1 — higher, 63.3%
- B3 — higher, 47.5%
- B4 — higher, 85.0%
- B5 — higher, 70.0%

Same assay, conditions: 0.1% DMSO; U251 cells; flow cytometry 24 h after transfection; damaged/undamaged reporter; inversely related to MGMT activity

Point of comparison: B3, “Reporter expression (%) mean, DMSO” value 22.8%. Against it:
- B1 — lower, 15.3%
- B2 — lower, 10.3%
- B4 — lower, 15.8%
- B5 — lower, 18.5%

Same assay, conditions: DMSO condition; determined from percent reporter expression

Point of comparison: B1, “MGMT activity (a.u.) DMSO” value 6.56 a.u.. Against it:
- B2 — higher, 9.68 a.u.
- B3 — lower, 4.40 a.u.
- B4 — lower, 6.35 a.u.
- B5 — lower, 5.41 a.u.

Same assay, conditions: DMSO condition; relative to wild-type MGMT in same condition

With B1 the “MGMT activity (% of WT) DMSO” value was 121.3 % of WT.
In the case of B2, the “MGMT activity (% of WT) DMSO” value is reported as 179.0 % of WT.
For B3, the “MGMT activity (% of WT) DMSO” value was 81.3 % of WT.
In the case of B4, the “MGMT activity (% of WT) DMSO” value is reported as 117.5 % of WT.
In the case of B5, the “MGMT activity (% of WT) DMSO” value is reported as 100.0 % of WT.

Same assay, conditions: MGMT activity (a.u.) in O^6BG divided by DMSO x 100; higher values indicate resistance

Point of comparison: B4, “Relative MGMT activity (%)” value 18.5%. Against it:
- B1 — higher, 24.1%
- B2 — higher, 48.4%
- B3 — higher, 47.9%
- B5 — higher, 26.4%

Same assay, conditions: O^6BG condition; determined from percent reporter expression

Point of comparison: B5, “MGMT activity (a.u.) O^6BG” value 1.43 a.u.. Against it:
- B1 — higher, 1.58 a.u.
- B2 — higher, 4.69 a.u.
- B3 — higher, 2.11 a.u.
- B4 — lower, 1.18 a.u.

Same assay, conditions: O^6BG condition; relative to wild-type MGMT in same condition

With B1 the “MGMT activity (% of WT) O^6BG” value was 110.7 % of WT.
With B2 the “MGMT activity (% of WT) O^6BG” value was 328.1 % of WT.
For B3, the “MGMT activity (% of WT) O^6BG” value was 147.4 % of WT.
B4 was tested, and the “MGMT activity (% of WT) O^6BG” value was 82.4 % of WT.
In the case of B5, the “MGMT activity (% of WT) O^6BG” value is reported as 100.0 % of WT.

Same assay, conditions: lower values indicate resistance to O^6BG

Point of comparison: B4, “Ratio percent reporter expression (O^6BG/DMSO)” value 5.40. Against it:
- B1 — lower, 4.15
- B2 — lower, 2.06
- B3 — lower, 2.09
- B5 — lower, 3.78

Same assay, conditions: percentage difference in relative MGMT activity between variant and wild-type MGMT

Point of comparison: B2, “O^6BG resistance relative to WT (%)” value 83.3%. Against it:
- B1 — lower, −8.8%
- B3 — lower, 81.2%
- B4 — lower, −29.9%
- B5 — lower, 0.0%
